These results are taken from paper PMC3530388 (Journal of the American Chemical Society, 2012).

In general, stoichiometry N refers to the number of molecules, sites or subunits per partner or assembly.

This data set deals with the molecule itself. Description: AUC.

B1: dihydroneopterin aldolase from Mycobacterium tuberculosis H37Rv (enzyme)
chain: MADRIELRGLTVHGRHGVYDHERVAGQRFVIDVTVWIDLAEAANSDDLADTYDYVRLASRAAEIVAGPPRKLIETVGAEIADHVMDDQRVHAVEVAVHKPQAPIPQTFDDVAVVIRRSRRGGRGWVVPAGGAV
For B1, the “stoichiometry N” value is 4.
